Results reported in the supplement of paper PMC7125110.
± gives the standard error. For some assays here: This sample holds only a part of the variants without activity.

B1: glmS ribozyme (parent)
chain: AUAAAAGCGCCAGAACUACAGAAAUGUAGUUGACGAGGAGGAGGUUUAUCGAAUUUUCGGCGGAUGCCUCCAAA

Tests used:
Details in all cases: with glucosamine-6-phosphate
glucosamine-6-phosphate [1] = variants of: B1; assay: kcat; higher = faster cleavage; RNA array
Outline: (§1)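 Tiles bearing barcoded ribozyme variants, transcribed in situ by E. coli RNA polymerase on sequenced MiSeq chips, were imaged over ~14 h at 37 °C using a hybridised Cy3 probe. Glucosamine-6-phosphate was supplied at 40 μM to 10 mM in HEPES/KCl/Mg(OAc)2 buffer. kobs came from one- or two-exponential decay fits to normalised per-tile medians, and weighted Michaelis–Menten fits then provided kcat and KM.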

glucosamine-6-phosphate [2] = variants of: B1; assay: KM; higher = weaker cofactor use; RNA array
Outline: as §1

glucosamine-6-phosphate [3] = variants of: B1; assay: self-cleavage kobs at 40 uM GlcN6P; higher = faster cleavage; RNA array
Outline: as §1

glucosamine-6-phosphate [4] = variants of: B1; assay: self-cleavage kobs at 160 uM GlcN6P; higher = faster cleavage; RNA array
Outline: as §1

glucosamine-6-phosphate [5] = variants of: B1; assay: self-cleavage kobs at 640 uM GlcN6P; higher = faster cleavage; RNA array
Outline: as §1

glucosamine-6-phosphate [6] = variants of: B1; assay: self-cleavage kobs at 2500 uM GlcN6P; higher = faster cleavage; RNA array
Outline: as §1

glucosamine-6-phosphate [7] = variants of: B1; assay: self-cleavage kobs at 10000 uM GlcN6P; higher = faster cleavage; RNA array
Outline: as §1

Variant | kcat (glucosamine-6-phosphate [1]) | KM (glucosamine-6-phosphate [2]) | self-cleavage kobs at 40 uM GlcN6P (glucosamine-6-phosphate [3]) | self-cleavage kobs at 160 uM GlcN6P (glucosamine-6-phosphate [4]) | self-cleavage kobs at 640 uM GlcN6P (glucosamine-6-phosphate [5]) | self-cleavage kobs at 2500 uM GlcN6P (glucosamine-6-phosphate [6]) | self-cleavage kobs at 10000 uM GlcN6P (glucosamine-6-phosphate [7])
AUAAAAGCGCCAGAGUUACAGAAAUGUAGUUGACGAGGAGGAGGUUUAUCGAAUUUUCGGCGGAUGCCUCCAAA [A15G C16U] | 0.00689 ± 0.0016 s⁻¹ | 876 ± 320 µM | 0.000403 ± 5.8e-05 s⁻¹ | 0.000875 ± 0.00017 s⁻¹ | 0.00277 ± 0.00047 s⁻¹ | 0.00432 ± 0.00071 s⁻¹ | 0.00798 ± 0.0011 s⁻¹
AUAAAAGCGCCAGAGAUACAGAAAUGUAGUUGACGAGGAGGAGGUUUAUCGAAUUUUCGGCGGAUGCCUUCAAA [A15G C16A C70U] | 0.000398 ± 6.7e-05 s⁻¹ | 804 ± 260 µM | – | 6.78e-05 ± 2.4e-05 s⁻¹ | 0.000168 ± 2.9e-05 s⁻¹ | 0.000315 ± 6.5e-05 s⁻¹ | –
AUAAAAGCGCCAGAGGUACAGAAAUGUAGUUGACGAGGAGGAGGUUUAUCGAAUUUUCGGCGGAUGCCUCGAAA [A15G C16G C71G] | 0.000103 ± 1.4e-05 s⁻¹ | – | – | – | – | 0.000115 ± 4e-05 s⁻¹ | 9.34e-05 ± 2.6e-05 s⁻¹
AUAAAAGCGCCAGAGCUACAGAAAUGUAUUUGACGAGGAGGAGGUUUAUCGAAUUUUCGGCGGAUGCCUCCAAA [A15G G29U] | 0.00177 ± 0.00076 s⁻¹ | – | 6.06e-05 ± 1.7e-05 s⁻¹ | 0.000104 ± 4.4e-05 s⁻¹ | 0.000265 ± 0.0001 s⁻¹ | 0.00118 ± 0.00039 s⁻¹ | 0.00145 ± 0.00039 s⁻¹
AUAAAAGCGCCAGAGCUACAGAAAUGUAGUUGACGAGGAGGAGGUUUAUCGAAUUUUCGGCGGAUGCUUCCAAA [A15G C68U] | 0.00322 ± 0.00055 s⁻¹ | 1130 ± 300 µM | 0.000128 ± 1.5e-05 s⁻¹ | 0.00032 ± 7.2e-05 s⁻¹ | 0.00112 ± 0.00019 s⁻¹ | 0.00139 ± 0.00047 s⁻¹ | 0.00316 ± 0.00032 s⁻¹
AUAAAAGCGCCAGAGCUACAGAAAUGUAGUUGACGAGGAGGAGGUUUAUCGAAUUUUCGGCGGAUGCAUCCAAA [A15G C68A] | 6.63e-05 ± 4.7e-06 s⁻¹ | 131 ± 49 µM | – | 3.62e-05 ± 9e-06 s⁻¹ | 5.49e-05 ± 1.2e-05 s⁻¹ | 7.32e-05 ± 1.2e-05 s⁻¹ | 6.03e-05 ± 9.3e-06 s⁻¹
AUAAAAGCGCCAGAGCUACAGAAAUGUAGUUGAGGAGGAGGAGGUUUAUCGAAUUUUCGGCGGAUGCAUCCAAA [A15G C34G C68A] | 2.44e-05 ± 5.8e-06 s⁻¹ | – | – | – | – | – | –
AUAAAAGCGCCAGAGCUACAGAAAUGUAGUUGACGAGGAGGAGGUUUAUCGAAUUUUGGGCGGAUGCCUCCAAA [A15G C58G] | 0.00042 ± 0.00013 s⁻¹ | – | – | – | – | 8.41e-05 ± 1.3e-05 s⁻¹ | 0.000197 ± 6.1e-05 s⁻¹
